From PMC10421056 (Science Advances, 2023) come the findings set out here.

The experiment has as its target His-tagged histone H2B.9 (Arabidopsis, UniProt O23629 1-150). Nature of the experiment: reconstitution of histone heterodimers.

His-tagged histone H2B.9, sequence (O23629 whole entry): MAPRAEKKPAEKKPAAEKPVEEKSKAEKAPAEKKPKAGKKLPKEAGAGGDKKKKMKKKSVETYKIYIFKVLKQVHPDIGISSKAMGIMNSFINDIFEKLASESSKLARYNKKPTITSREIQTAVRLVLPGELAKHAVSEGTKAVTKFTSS

B1: His-tagged histone H2A.X.3 (natural protein)
chain: MSSGAGSGTTKGGRGKPKATKSVSRSSKAGLQFPVGRIARFLKAGKYAERVGAGAPVYLSAVLEYLAAEVLELAGNAARDNKKTRIVPRHIQLAVRNDEELSKLLGSVTIANGGVLPNIHQTLLPSKVGKNKGDIGSASQEF
On to B1, for which the binding result is on record as “binds”.

B2: His-tagged histone H2A.Z.9 (natural protein)
chain: not shown
For the molecule B2, the binding result is reported as “binds”.
